# Target: T1, BSA (UniProt P02769 25-607)
# T1 construct: also called 음성 대조군; 대조군
# Experiment: ELISA of clone supernatant on coated antigen
# T1 sequence (P02769 25-607 limits assumed): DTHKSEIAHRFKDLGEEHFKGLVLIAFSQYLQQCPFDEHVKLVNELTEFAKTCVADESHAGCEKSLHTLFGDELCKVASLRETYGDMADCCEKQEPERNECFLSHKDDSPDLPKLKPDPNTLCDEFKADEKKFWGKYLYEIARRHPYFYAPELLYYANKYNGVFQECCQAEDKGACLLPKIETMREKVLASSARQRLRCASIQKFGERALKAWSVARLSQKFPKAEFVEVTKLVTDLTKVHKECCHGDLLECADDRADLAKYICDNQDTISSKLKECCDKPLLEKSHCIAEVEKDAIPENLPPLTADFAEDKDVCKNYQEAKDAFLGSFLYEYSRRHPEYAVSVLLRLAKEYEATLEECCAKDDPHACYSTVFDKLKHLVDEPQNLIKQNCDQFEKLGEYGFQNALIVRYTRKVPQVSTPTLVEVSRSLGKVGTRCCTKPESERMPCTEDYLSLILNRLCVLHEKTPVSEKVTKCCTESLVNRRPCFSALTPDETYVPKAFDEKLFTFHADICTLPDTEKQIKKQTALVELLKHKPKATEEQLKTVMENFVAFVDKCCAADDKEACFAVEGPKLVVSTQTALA
binder,measurement,value
"NA-A4 항체 클론 (Fab 형태, 파지 디스플레이 클론의 IPTG 유도 상층액) (Fab, V domains shown, also called Influenza NA-A4 antibody; 인플루엔자 NA-A4 항체) VH: EVQLVESGGGLVQPGGSLRLSCAASGFTFNSYWMSWVRQAPGKGLEWVSWITPTSGTTYYADSVKGRFTISRDNSKNTLYLQMNSLRAEDTAVYYCARVEDWDIGYYGMDYWGQGTLVTVSS VL: DIQMTQSPSSLSASVGDRVTITCRASQSVSNWLAWYQQKPGKAPKLLIYWASSLESGVPSRFSGSGSGTDFTLTISSLQPEDFATYYCQQYYNHPYTFGQGTKVEIK",binding result,no binding
